B1: Pistol ribozyme (parent)
chain: GGGUCGUUGUUCCAUAAUCGCGUGGAUAUGGCACGCAAGUUUCUACCGGGCACCGUAAAUGUCCGACUGGAGCCGUUCGGGCGGCUAUAAACAGACCUCAGGCCCGAAGCGUGGCGGCACCUGCCGCCGGUGGUAAAAAAGAUCGGAAGAGCACACGUCU

Variants of: B1
Test: aptazyme ON/OFF ratio, guanine; higher = stronger switching; co-transcriptional cleavage with and without guanine

Variant	aptazyme ON/OFF ratio
U7C U8A G9U C12A C13A	1.14
U7C U8A G9U C12A C13U	1.15
U7C U8A G9U C12A C13G	1.18
U7C U8A G9U U10C U11A	1.27
U7C U8A G9U U10C U11C	1.01
U7C U8A G9U U10C C13A	1.05
U7C U8A G9U U10C C13G	1.07
U7C U8A G9U U10C C13U	1.8
U7C U8A G9C U10G	1.97
U7C U8A G9C U10C	2.31
U7C U8A G9U U10A U11C C12U C13A	1.14
U7C U8A G9U U10A U11C C12U C13U	1.21
U7C U8A G9U U10A U11C C12U C13G	1.13
U7C U8A G9U U10A C12U C13U	1.19
U7C U8A G9U U10A C12U C13A	1.24
U7C U8A G9U U10A C12U C13G	1.16
U7C U8A G9C U10G C12U	1.36
U7C U8A G9C U10G C12G	1.28
U7C U8A G9C U10G C12A	1.17
U7C U8A G9C U11G C12U C13G	1.14
U7C U8A G9C U11G C12U C13U	1.13
U7C U8A G9C U11G C12U C13A	1.18
U7C U8A G9C U10C U11G C12U C13A	1.05
U7C U8A G9C U10C U11G C12U C13G	1.11

Variant	aptazyme ON/OFF ratio
U7C U8A G9C U10C U11G C12U C13U	1.1
U7C U8A G9C U11C C12G C13G	1.12
U7C U8A G9C U11C C12G C13A	1.07
U7C U8A G9C U11C C12G C13U	1.1
U7C U8A G9U U10C	3.35
U7C U8A G9U U10A	1.16
U7C U8A G9C U10A U11C C12U	1.08
U7C U8A G9C U10A U11C C12A	1.28
U7C U8A G9C U10A U11C C12G	1.2
U7C U8A G9U	1.59
U7C U8A G9U C13U	1.28
U7C U8A G9U C13A	1.16
U7C U8A G9U C13G	1.03
U7C U8A G9C U10A U11C C13A	1.06
U7C U8A G9C U10A U11C C13U	1.02
U7C U8A G9C U10A U11C C13G	1.05
U7C U8A G9C U10G U11G	1.1
U7C U8A G9C U10G U11A	1.05
U7C U8A G9C U10G U11C	1.1
U7C U8A G9U U10A U11A C12G C13A	1.08
U7C U8A G9U U10A U11A C12G C13G	1.2
U7C U8A G9U U10A U11A C12G C13U	1.28
U7C U8A G9U U10A U11A C13G	1.07
U7C U8A G9U U10A U11A C13U	1.19

Variant	aptazyme ON/OFF ratio
U7C U8A G9U U10A U11A C13A	1.13
U7C U8A G9U U10A C13U	1.19
U7C U8A G9U U10A C13A	1.2
U7C U8A G9U U10A C13G	1.05
U7C U8A G9C U10C U11G C12A	1.11
U7C U8A G9C U10C U11G C12U	1.08
U7C U8A G9C U10C U11G C12G	1.09
U7C U8A G9U U10C C12A C13U	1.15
U7C U8A G9U U10C C12A C13A	1.13
U7C U8A G9U U10C C12A C13G	1.15
U7C U8A G9U U10A U11C C12G C13A	1.13
U7C U8A G9U U10A U11C C12G C13G	1.19
U7C U8A G9U U10A U11C C12G C13U	1.25
U7C U8A G9C U10A U11A C12U	1.2
U7C U8A G9C U10C U11A C12G C13A	1.1
U7C U8A G9C U10C U11A C12G C13U	1.12
U7C U8A G9C U10C U11A C12G C13G	1.1
U7C U8A G9U U10A U11G C12G C13U	1.12
U7C U8A G9U U10A U11G C12G C13A	1.15
U7C U8A G9U U10A U11G C12G C13G	1.26
U7C U8A G9C U10C U11G C12A C13A	1.21
U7C U8A G9C U10C U11G C12A C13U	1.08
U7C U8A G9C U10C U11G C12A C13G	1.17
U7C U8A G9C U10A U11C C12U C13G	1.1

Variant	aptazyme ON/OFF ratio
U7C U8A G9C U10A U11C C12U C13U	1.12
U7C U8A G9C U10A U11C C12U C13A	1.18
U7C U8A G9C U10A U11C C12A C13G	1.14
U7C U8A G9C U10A U11C C12A C13U	1.15
U7C U8A G9C U10A U11C C12A C13A	1.19
U7C U8A G9C U10G U11C C12A C13U	1.43
U7C U8A G9C U10G U11C C12A C13A	1.36
U7C U8A G9C U10G U11C C12A C13G	1.21
U7C U8A G9U U10A U11G C12A C13A	1.09
U7C U8A G9U U10A U11G C12A C13U	1.14
U7C U8A G9U U10A U11G C12A C13G	1.15
U7C U8A G9U U10A U11G C13G	1.03
U7C U8A G9U U10A U11G C13U	1.17
U7C U8A G9U U10A U11G C13A	1.16
U7C U8A G9C U10C U11A C12A C13G	1.11
U7C U8A G9C U10C U11A C12A C13U	1.04
U7C U8A G9C U10C U11A C12A C13A	1.07
U7C U8A G9C U11A C12G C13G	1.17
U7C U8A G9C U11A C12G C13U	1.14
U7C U8A G9C U11A C12G C13A	1.13
U7C U8A G9C U10G U11C C12A	1.29
U7C U8A G9C U10G U11C C12G	1.18
U7C U8A G9C U10G U11C C12U	1.24
U7C U8A G9C U10G U11G C12U C13A	1.12

Variant	aptazyme ON/OFF ratio
U7C U8A G9C U10G U11G C12U C13U	1.09
U7C U8A G9C U10G U11G C12U C13G	1.1
U7C U8A G9C U10A U11G C13G	1.02
U7C U8A G9C U10A U11G C13A	1.12
U7C U8A G9C U10A U11G C13U	1.16
U7C U8A G9C U10G U11G C12A	1.23
U7C U8A G9C U10G U11G C12U	1.12
U7C U8A G9C U10G U11G C12G	1.13
U7C U8A G9C U10C C13G	1.05
U7C U8A G9C U10C C13A	1.03
U7C U8A G9C U10C C13U	1.23
U7C U8A G9C U10C U11C C12U C13G	1.03
U7C U8A G9C U10C U11C C12U C13A	1.03
U7C U8A G9C U10C U11C C12U C13U	1.02
U7C U8A G9C U10C U11G C12G C13G	1.11
U7C U8A G9C U10C U11G C12G C13U	1.07
U7C U8A G9C U10C U11G C12G C13A	1.11
U7C U8A G9C U10G U11A C13U	1.04
U7C U8A G9C U10G U11A C13A	1.08
U7C U8A G9C U10G U11A C13G	1.11
U7C U8A G9C U10G U11A C12G C13G	1.19
U7C U8A G9C U10G U11A C12G C13U	1.13
U7C U8A G9C U10G U11A C12G C13A	1.1
U7C U8A G9C U10C U11A	0.786

Variant	aptazyme ON/OFF ratio
U7C U8A G9C U10C U11C	1.01
U7C U8A G9C U10C U11G	0.891
U7C U8A G9C U10G U11G C12A C13G	1.12
U7C U8A G9C U10G U11G C12A C13A	1.09
U7C U8A G9C U10G U11G C12A C13U	1.06
U7C U8A G9U U10C C12U	1.13
U7C U8A G9U U10C C12G	1.22
U7C U8A G9U U10C C12A	1.14
U7C U8A G9C U10G U11G C12G C13U	1.09
U7C U8A G9C U10G U11G C12G C13G	1.13
U7C U8A G9C U10G U11G C12G C13A	1.11
U7C U8A G9C U10C C12A C13U	1.06
U7C U8A G9C U10C C12A C13A	1.05
U7C U8A G9C U10C C12A C13G	1.07
U7C U8A G9C U10A U11G C12G C13A	1.1
U7C U8A G9C U10A U11G C12G C13G	1.15
U7C U8A G9C U10A U11G C12G C13U	1.1
U7C U8A G9U C12G C13U	1.22
U7C U8A G9U C12G C13G	1.21
U7C U8A G9U C12G C13A	1.21
U7C U8A G9U U10C U11A C12A C13U	1.15
U7C U8A G9U U10C U11A C12A C13G	1.13
U7C U8A G9U U10C U11A C12A C13A	1.08
U7C U8A G9C U11A C13G	1.06

Variant	aptazyme ON/OFF ratio
U7C U8A G9C U11A C13A	1.11
U7C U8A G9C U11A C13U	1.13
U7C U8A G9C U11G C13G	1.05
U7C U8A G9C U11G C13A	1.07
U7C U8A G9C U11G C13U	1.15
U7C U8A G9U U10A C12G C13G	1.17
U7C U8A G9U U10A C12G C13A	1.12
U7C U8A G9U U10A C12G C13U	1.25
U7C U8A G9C U10A U11A C13G	1.15
U7C U8A G9C U10A U11A C13A	1.2
U7C U8A G9C U10A U11A C13U	1.19
U7C U8A G9C U10C U11A C12U C13A	1.04
U7C U8A G9C U10C U11A C12U C13G	1.05
U7C U8A G9C U10C U11A C12U C13U	1.04
U7C U8A G9C U10G C12G C13A	1.32
U7C U8A G9C U10G C12G C13G	1.13
U7C U8A G9C U10G C12G C13U	1.15
U7C U8A G9C U10G U11C C12U C13U	1.34
U7C U8A G9C U10G U11C C12U C13A	1.19
U7C U8A G9C U10G U11C C12U C13G	1.27
U7C U8A G9C U11C C13G	1.04
U7C U8A G9C U11C C13A	1.14
U7C U8A G9C U11C C13U	1.05
